Data set [1] has as its target T1, Gallus α-N-acetyl-galactosaminidase (Gallus gallus, UniProt Q90744).
T1 construct: mature glycoprotein, about 145 kDa oligomer
T1 sequence (Q90744 1-405 S162A): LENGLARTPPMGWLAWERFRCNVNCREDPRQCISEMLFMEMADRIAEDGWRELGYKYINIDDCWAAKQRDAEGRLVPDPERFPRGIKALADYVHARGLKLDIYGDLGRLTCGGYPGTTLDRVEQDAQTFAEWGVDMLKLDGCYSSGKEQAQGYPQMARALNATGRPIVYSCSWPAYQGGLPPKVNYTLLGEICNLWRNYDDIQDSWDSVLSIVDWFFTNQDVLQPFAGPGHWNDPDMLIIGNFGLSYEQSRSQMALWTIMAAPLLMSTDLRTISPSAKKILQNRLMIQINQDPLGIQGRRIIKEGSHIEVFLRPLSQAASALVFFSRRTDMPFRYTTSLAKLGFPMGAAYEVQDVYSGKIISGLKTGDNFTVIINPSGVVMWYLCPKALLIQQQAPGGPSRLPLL
Put plainly: Affinity ligand chromatography. Type of data set: binding, Gallus domesticus. Conditions: Affi-Gel 10 coupled ligand. The method, then: Synthesis of affinity ligand and resin: .xi.-aminohexanoyl-α-D-galactopyranosYlamine was synthesized by a modification of the method of Harpaz et al. (1974). Purity of the product was determined by thin-layer chromatography and mass spectroscopy. The ligand was coupled to Affi-Gel™ 10 per the manufacturer's directions. Coupling efficiencies of 80%.
Step 5. After dialysis, the pool was applied to a 1.5×20 cm .xi.-aminohexanoyl-α-D-galactopyranosylamine Affi-Gel™ 10 column equilibrated in 50 mM Na acetate+0.1% Triton X-100+0.01% NAN3, pH 5.0. The column was washed with 90 mls of equilibration buffer, and the enzyme was eluted with 50 mM NaH2 PO4 +100 mM methyl-α-D-galactopyranoside+0.1% Triton X-100+0.01% NAN3, pH 7.0. Active fractions were pooled, concentrated, and dialyzed into 50 mM Na acetate+0.1% Triton X-100+0.01% NaN3, pH 5.0.
7. Load the filtrate onto a 2.5×15.0 cm ε-amino-hexanoyl-α-D-galactopyranosylamine Affi-Gel™ 10 column equilibrated with 10 mM NaH2 PO4, pH 5.5 at 4° C. Wash the column with 300 ml of 75 mM NaH2 PO4 pH 5.5. Elute the enzyme from the column with 300 ml (range 50 to 500) of 50 mM NaH2 PO4 +100 mM D-(+)-Galactose, pH 7.0.

The target in data set [2] is T2, Gallus N-acetyl-α-D-galactosaminidase (Gallus gallus, UniProt Q90744).
T2 construct: the cDNA clone corresponds to the region of the mRNA encoding the mature polypeptide for the chicken α-N-acetyl-galactosaminidase; from tissue; host or cells: chicken liver
T2 sequence (Q90744 1-405 S162A): T1 sequence (Q90744 1-405 S162A)
Put plainly: Kinetic parameters (Km, turnover number) of Gallus enzyme. Format: biochemical, Gallus domesticus. To be noted: Example 1 preparation. The method, then: Enzymatic activity was quantitated during the purification by measuring production of p-nitrophenol (PNP) from PNP-N-acetyl-α-D-galactosaminide or o-nitrophenol (ONP) from ONP-N-acetyl-α-D-galactosaminide. Enzyme aliquots were incubated in 200 μl of 50 mM Na citrate+1 mg/ml BSA+1.0 mM PNP-N-acetyl-α-D-galactosaminide, pH 3.5, at 37° C. The reactions were quenched with 1.0 ml of 0.25M Na2 CO3 and the OD 405 nm was measured. One unit of activity was defined as 1.0 μmole of substrate hydrolyzed per minute.

The target in data set [3] is T2, Gallus N-acetyl-α-D-galactosaminidase. The data set is described as follows: Substrate specificity (relative activity). Format: biochemical, Gallus domesticus. To be noted: % of enzyme activity on the corresponding conjugate, 2.5 mM PNP conjugates, pH 3.5.
Data set [4] concerns human α-N-acetyl-galactosaminidase. To be noted: human enzyme; Schram et al, 1977; cited from earlier work.
The subject of data set [5] is human A2 erythrocytes. The data set is described as follows: Erythrocyte indices, hemolysis and morphology after enzyme treatment. Format: cell-based.
A further data set is described as follows: pI by chromatofocusing. Format: physicochemical. To be noted: Example 1 preparation.
For data set [6], the system named is human A2 erythrocytes. Put plainly: Removal of blood group A epitope from A2 erythrocytes (hemagglutination). Format: cell-based. Conditions: much higher enzyme concentrations are required. The procedure:
(§1) Endoprotease assays were performed by an adaption of the resorufin-labeled casein assay of Twining (Twining, 1984). The limit of sensitivity of this assay was determined using a trypsin standard. Stable, concentrated, detergent-free enzyme was prepared as described herein. Activity against the blood group antigen on erythrocytes was determined by incubating enzyme at 24°-37° C. for 2-8 hours with either erythrocytes equilibrated in 25 mM Na citrate+50 mM NaH2 PO4 +80 mM NaCl, pH 5.6-5.8, or in 2.5-5 mM Na citrate+300 mM glycine, pH 5.4-5.6. The cells were washed with phosphate buffered saline, pH 7.0, then incubated with varying dilutions of polyclonal or monoclonal antibody, as for example anti-A for A erythrocytes. Other antibodies and buffers could be used for other blood groups as is known in the art. Hemagglutination was performed and titer scored by standard methods (Bryant, 1982).
The enzyme was also tested on human A2 erythrocytes. Removal of the terminal N-acetyl-α-D-galactosaminyl residue from the blood group A epitope, {galNAc(α1-3) gal(β1-R) {fuc(α1-2)} glueNAc(β1-R)}, was achieved by the enzyme as shown in FIG. 8. […] Incubation at 37° C. was necessary because dilute concentrations of glycosidase were used.

The next data set can be described thus: pH optimum. Format: biochemical. Conditions: for pH optimum: pH 2.0 to 8.0 tested. The procedure: The pH optima was determined by incubating aliquots of the enzyme in 40 mM Na citrate+40 mM NaH2 PO4 +1 mg/ml BSA+2.5 mM PNP-N-acetyl-α-D-galactosamide, pH 2.0 to 8.0. The ionic strength optimum was determined by incubating aliquots of the enzyme in 2.5 mM Na citrate+1 mg/ml BSA+2.5 mM PNP-N-acetyl-α-D-galactoside+0 to 1.0M NaCl, pH 3.5 and 6.0. The Kms for ONP- and PNP-N-acetyl-α-D-galactosaminide were determined by varying the substrate concentration in 50 mM Na citrate+1 mg/ml BSA, pH 3.5. The native molecular weight was determined by applying a concentrated portion of the enzyme to a 1×45 cm Sephacryl S-200 column equilibrated in 25 mM Na citrate+200 mM NaCl, pH 6.0. SDS polyacrylamide electrophoresis (SDS-PAGE) was performed according to the method of Laemmli and the protein bands developed with Coomassie R-250 (Laemmli, 1970). Amino acid composition was determined on a Beckman amino acid analyzer (Moore et al., 1954).

Data set [7] in a line: Aminopeptidase assay with p-nitroaniline (PNA) substrates. Type of data set: biochemical. Conditions: for Aminopeptidase activity: five PNA substrates. The procedure: Aminopeptidase assays were performed by incubating aliquots of enzyme with 2.5 mM of various p-nitroaniline (PNA) substrates in 50 mM Na citrate+50 mM NaH2 PO4 +0.1% Triton X-100, pH 5.0 to 8.0 (Macfarlane et al., 1988). The reactions were incubated at 37° C., quenched with 1.0 ml of 0.25M Na2 CO3, and the OD 405 nm was determined. One unit of aminopeptidase activity was defined as 1.0 μmole of PNA hydrolyzed per minute.

For the next data set, the system named is resorufin-labeled casein. Put plainly: Endoprotease (resorufin-labeled casein) assay. Type of data set: biochemical. To be noted: for endoprotease activity, resorufin-labeled casein assay: sensitivity limit 0.01 trypsin BAEE units. The procedure: as §1
The nature of a further data set: Ionic strength optimum. Format: biochemical.
For data set [8] the following is noted: Hata et al., 1992; cited from earlier work.
Data set [9] is described as follows: Storage stability at 4° C. Type of data set: physicochemical.
Data set [10] is described as follows: Selectivity / other glycosidase activities of the enzyme preparation. Type of data set: biochemical.
Where [11] appears, read: preparations isolated by the invention.

Substitutions are numbered along the chain they refer to. Entries after “also recorded” stand apart in the source; their conditions may differ.

With `NCCCCCC(=O)N[C@H]1O[C@H](CO)[C@H](O)[C@H](O)[C@H]1O` [.xi.-aminohexanoyl-α-D-galactopyranosylamine], the “active site specific affinity ligand (in words)” value in data set [1] is on record as “efficient active site specific affinity ligand”.

In the case of `O=[N+]([O-])c1ccc(O[C@H]2O[C@H](CO)[C@H](O)[C@H](O)[C@H]2O)cc1` [PNP-α-D-galactopyranoside], the “Km (in words)” value in data set [2] is reported as “high Km”. For the same molecule, the “Relative Activity” value is reported as 12.74% in [3] (Table IV, Example 1 preparation) and 15.79% in data set [3] (Table VI, improved purification (Example 2)). In addition, the Km (as a rule, the substrate concentration at which the rate is half of its maximum) in [4] was 1000 µM.

B1: α-N-acetyl-galactosaminidase: purified exoglycosidase [EC 3.2.1.49] derived from Gallus domesticus (chicken) liver, degrades human blood group A2 epitope (protein, UniProt Q90744 1-405, looked up)
Alpha-N-acetylgalactosaminidas …: T1 sequence (Q90744 1-405 S162A) with A162S
In the case of B1, the “morphology of treated cells” value with human A2 erythrocytes [5] was “mixed population of normocytes and spiculated cells”. For the same molecule, in the data set on human A2 erythrocytes [5] (treated human A2 erythrocytes), the “change in erythrocyte mean corpuscular volume” value was “insignificant change”, the “change in mean corpuscular hemoglobin” value is on record as “insignificant change”, the “change in mean corpuscular hemoglobin concentration” value is on record as “insignificant change” and the visible hemolysis entry is given as “little visible hemolysis”. Also, the “pI (approximate mean)” value in “pI by chromatofocusing” was approximately 8.15. In addition, the “deantigenation at lower temperatures and shorter incubations” value with human A2 erythrocytes [6] is on record as “achieved deantigenation”. Also, in “pH optimum” (Example 1 preparation), the “pH range of activity (in words)” value is “broad pH range” and the pH optimum is recorded as 3.7. Moreover, in the data set “pH optimum” (Example 2 preparation), the “pH range of activity (in words)” value was “broad pH range” and the pH optimum was determined as 3.4. Moreover, the Aminopeptidase activity in [7] (Example 1 preparation, below limits of detection) was not above 0.05 units/mg enzyme. In addition, the Aminopeptidase activity result in data set [7] (Example 2 preparation) is given as “less than 0.05 units per mg”. Besides, in data set [7] (setting [11]), the “aminopeptidase activity (in words)” value is recorded as “lacked detectable aminopeptidase”. For the same molecule, in the data set on resorufin-labeled casein (Example 1 preparation), the “"trypsin-like activity"” value is on record as “less than 0.78 ng per mg of pure enzyme”; the “proteolytic activity (in words)” value is reported as “No proteolytic activity was detected”; the “endoprotease activity, resorufin-labeled casein assay” value was not above 0.01 BAEE units/mg enzyme. In addition, in the data set on resorufin-labeled casein (Example 2 preparation), the “"trypsin-like activity"” value is given as “less than 0.78 ng per mg of pure enzyme”; the “proteolytic activity (in words)” value is given as “no measurable protease activity; also recorded: No proteolytic activity was detected”; the “endoprotease activity, resorufin-labeled casein assay” value is reported as “less than 0.01 BAEE units/mg enzyme”. The “endoprotease activity (in words)” value with resorufin-labeled casein (setting [11]) is “lacked detectable aminopeptidase and endoprotease activities”. The “effect of ionic strength on activity” value in the data set “Ionic strength optimum” (Example 1 preparation, high or low ionic strengths, pH 3.7) is listed as “not strongly inhibited”. Also, the “effect of ionic strength on activity” value in “Ionic strength optimum” (Example 2 preparation, high / increasing ionic strength (pH 3.5)) is recorded as “unaffected by increasing ionic strength; also recorded: not significantly affected”. Moreover, in data set [8], the “degradation of the human blood group A epitope” value is on record as “degrades the human blood group A epitope”. For the same molecule, the “loss of activity on storage” value in data set [9] (Example 1 preparation, several months) is on record as “less than 10%”. For the same molecule, the “loss of activity on storage” value in [9] (Example 2 preparation, six months) is on record as “less than 5%”. Besides, in data set [9] (purified enzyme), the “stability (in words)” value was “stable at 4 °C”. The “selectivity (in words)” value in data set [10] (for PNP-N-acetyl-α-D-galactosaminide) is given as “highly selective”. Also, in data set [10] (preparations of the inventive isolation methods), the “other glycosidase activities (in words)” value is given as “lack other detectable glycosidase activities”.

The values above are taken from patent US5610063A, “cDNA for α-N-acetyl-galactosaminidase from Gallus domesticus” (Curators of the University of Missouri, priority 1995, dated 1997).
